Experimental data as given in paper PMC12342048.

Biological target: mammalian cell-expressed human COMP (Cartilage Oligomeric Matrix Protein) (human) (UniProt P49747)
Sequence (P49747 21-757): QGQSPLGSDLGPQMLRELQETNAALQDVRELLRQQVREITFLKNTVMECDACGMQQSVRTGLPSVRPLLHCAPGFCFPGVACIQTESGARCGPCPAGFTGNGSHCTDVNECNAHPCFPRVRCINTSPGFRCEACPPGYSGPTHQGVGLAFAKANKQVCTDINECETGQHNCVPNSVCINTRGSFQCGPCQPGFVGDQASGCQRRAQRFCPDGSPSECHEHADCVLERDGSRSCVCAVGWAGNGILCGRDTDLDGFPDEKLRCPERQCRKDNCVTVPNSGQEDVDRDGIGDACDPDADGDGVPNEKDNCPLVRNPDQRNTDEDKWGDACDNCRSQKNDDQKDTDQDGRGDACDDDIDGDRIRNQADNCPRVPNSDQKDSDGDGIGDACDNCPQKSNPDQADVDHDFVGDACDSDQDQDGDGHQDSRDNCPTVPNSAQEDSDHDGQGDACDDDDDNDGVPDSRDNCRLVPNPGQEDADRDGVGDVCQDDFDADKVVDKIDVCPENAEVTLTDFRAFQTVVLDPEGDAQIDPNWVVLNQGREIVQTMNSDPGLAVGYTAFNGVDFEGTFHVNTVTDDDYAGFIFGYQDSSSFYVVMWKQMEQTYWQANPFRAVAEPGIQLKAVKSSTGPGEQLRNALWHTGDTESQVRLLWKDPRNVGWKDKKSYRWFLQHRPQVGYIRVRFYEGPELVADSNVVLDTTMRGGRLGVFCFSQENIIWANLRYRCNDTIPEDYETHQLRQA

ADAMTS4 variant β1-β2 (residues 693–698 swapped with those of ADAMTS13), sequence (O75173 52-837, change not shown): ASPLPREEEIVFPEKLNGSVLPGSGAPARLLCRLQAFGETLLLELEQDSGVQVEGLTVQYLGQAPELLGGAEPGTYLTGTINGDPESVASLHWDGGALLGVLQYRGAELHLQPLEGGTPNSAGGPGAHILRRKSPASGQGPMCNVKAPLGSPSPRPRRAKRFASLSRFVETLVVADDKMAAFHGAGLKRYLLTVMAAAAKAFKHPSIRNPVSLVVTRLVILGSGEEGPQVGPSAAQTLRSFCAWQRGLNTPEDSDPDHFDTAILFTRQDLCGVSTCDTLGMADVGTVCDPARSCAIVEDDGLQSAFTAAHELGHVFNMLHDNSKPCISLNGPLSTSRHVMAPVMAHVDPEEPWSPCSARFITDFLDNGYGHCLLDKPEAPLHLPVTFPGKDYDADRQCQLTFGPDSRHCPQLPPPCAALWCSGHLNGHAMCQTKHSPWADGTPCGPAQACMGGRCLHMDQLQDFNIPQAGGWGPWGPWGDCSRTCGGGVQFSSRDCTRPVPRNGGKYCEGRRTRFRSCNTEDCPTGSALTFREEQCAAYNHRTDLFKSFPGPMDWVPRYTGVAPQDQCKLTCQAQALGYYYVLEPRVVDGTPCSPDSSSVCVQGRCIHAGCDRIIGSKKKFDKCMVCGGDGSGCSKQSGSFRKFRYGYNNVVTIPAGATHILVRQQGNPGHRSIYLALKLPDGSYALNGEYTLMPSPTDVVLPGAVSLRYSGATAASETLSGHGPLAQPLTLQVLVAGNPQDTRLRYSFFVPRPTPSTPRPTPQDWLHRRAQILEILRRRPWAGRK
ADAMTS4 variant β3-β4; β9-β10 (both loops replaced with those of ADAMTS13), sequence (O75173 52-837, change not shown): as above

| reduction in COMPase activity at the S77-V78 bond compared to WT ADAMTS4 (hCOMP 520 nM, enzyme 12 nM, 2 h, 37 °C; densitometry of anti-QQS77 immunoblot, WT set as 100 %) [% reduction] | Substance |
| --- | --- |
| 25 | ADAMTS4 variant β1-β2 (residues 693–698 swapped with those of ADAMTS13) (from UniProt O75173 52-837) (enzyme) |
| 20 | ADAMTS4 variant β3-β4; β9-β10 (both loops replaced with those of ADAMTS13) (from UniProt O75173 52-837) (enzyme) |
